Data: publication PMC2757159 (Biochemistry, 2009)

Biological target: the molecule itself
Assay: SEC

B1: human H46R/H48Q copper-zinc superoxide dismutase (SOD1) double mutant (enzyme)
chain: not shown
Question: B1 was tested. Which “stoichiometry N” value did it give?
Answer: 2
